Target: SD93 NA K385N/N387K mutant, recombinant NA head domain (residues 82-469) fused to a VASP tetramerization domain (not stated | influenza A virus A/Shandong/9/1993 (H3N2))
Experiment: SEC; HiLoad 16/100 Superdex 200 prep grade, 20 mM Tris-HCl pH 8.0, 100 mM NaCl, 10 mM CaCl2; NA head domain fused to a VASP tetramerization domain

**Q.** “SD93 NA K385N/N387K mutant, recombinant NA head domain (residues 82-469) fused to a VASP tetramerization domain (domain or fragment)” was tested. Which stoichiometry N did it give?
**A.** Its stoichiometry N is 4.
